This passage reports Kd, koff and kon results from patent US20240043507A1 (RQ BIOTECHNOLOGY, published 2024).

As usually defined, the Kd is a measure of binding affinity in units of concentration. Read a low Kd as higher affinity. For orientation: koff means the rate constant with which the complex falls apart. A low value points to a long-lived complex. For orientation: kon means the second-order rate constant of association. High values mean fast association, low ones slow association.

Test [1] deals with T1, SARS-CoV-2 receptor binding domain (RBD), native (SARS-CoV-2, UniProt P0DTC2 330-532).
T1 construct: range 330-532
Put plainly: BLI, Fab and RBD. (Biolayer interferometry detects binding as a change in optical thickness at a sensor tip.)

Test [2] addresses SARS-CoV-2 spike receptor binding domain (native RBD) (SARS-CoV-2, UniProt P0DTC2 330-532).
Test [3] concerns the target T2, SARS-CoV-2 spike receptor binding domain, native (SARS-CoV-2, UniProt P0DTC2 330-532).
T2 construct: range 330-532
Briefly: BLI, RBD on AR2G biosensor, mAb as analyte.

Changes are numbered by the printed parent chain.

B1: Fab 175 (Fab, V domains shown)
VH: EVQLVESGGGLIQPGGSLRLSCAASGLTVSRNYMSWVRQAPGKGLEWVSLIYSGGSTYYADSVKGRFTISRDNSKNTLYLQMNSLRAEDTAVYYCARDLRGEVWGQGTMVTVSS
VL: not shown
In turn, B1 had a Kd in test [1] of 2.4 nM.

B2: antibody 175 (antibody, V domains shown)
VH: B1 VH
VL: not shown
In test [2], B2 displayed a Kd of 0.97 nM.

B3: Fab 165 (Fab, V domains shown)
VH: QVQLVQSGPEVKKPGTSVKVSCKASGFTFTSSAVQWVRQARGQRLEWIGWIVVGSGNTNYAQKFQESVTITRDMSTSTAYMELSSLRSEDTAVYYCAAPHCIGGSCHDAFDIWGQGTMVTVSS
VL: DIVMTQSPGTLSLSPGERATLSCRASQSVRSSYLAWYQQKPGQAPRLLIYGASRRGTGIPDRFSGSGSGTDFTLTISRLEPEDFAVYYCQQYGSSPWTFGQGTKVEIK
For the molecule B3, in test [1], the Kd stood at 4.8 nM.

B4: antibody 253H165L (antibody, V domains shown)
VH: not shown
VL: B3 VL
On to B4, for which the Kd in test [2] was found to be 0.73 nM.

B5: antibody 88 (antibody, V domains shown)
VH: QLQLQESGPGLVKPSQTLSLTCTVSGGSISSGSYNWTWIRQPAGKGLEWIGRIYNSGSTNYNPSLKSRVTISVDTSKNQLSLKVRSVTAADTAVYYCARHCSGGTCYPKYYYGMDVWGQGTTVTVSS
VL: QSALTQPPSVSEAPRQRVTISCSGSSSNIGNNAVNWYQQFPGKAPKLLIYYDDLLPSGVSDRFSGSKSGTSASLAISGVQSEDEADYYCAAWDDSLNVVVFGGGTKLTVL
Regarding B5, the Kd in test [2] worked out at 0.64 nM.

B6: antibody 40 (antibody, V domains shown)
VH: QVQLVESGGGLVQPGGSLRLSCAVSGFTVSRNYMSWVRQAPGKGLEWVSLIYSGGSTFYADSVKGRFTISRDNSKNTLYLQMNSLRAEDTAVYYCARDLFHRSGYHDYWGQGTLVTVSS
VL: not shown
For B6, binding in test [2] was characterised by a dissociation constant (Kd) of 0.55 nM.

B7: antibody 40 (antibody, V domains shown)
VH: B6 VH
VL: not shown
notes: also called mAb 40
B7 showed a Kd in test [3] of 1.33 nM.

B8: antibody 316 (antibody, V domains shown)
VH: not shown
VL: QAVLTQPPSASGSPGQSVTISCTGTSSDVGGYNYVSWYQQHPGKAPKLMIYEVSKRPSGVPDRFSGSKSGNTASLTVSGLQAEDEADYYCSSYAGSNHWVFGGGTKLTVL
Consider B8, for which, in test [2], the Kd came out at 1.5 nM.

B9: Fab 316 (Fab, V domains shown)
VH: not shown
VL: B8 VL
notes: also called 316 Fab (glycosylated)
Take B9: in test [1], binding was characterised by a dissociation constant (Kd) of 2 nM.

B10: antibody 398 (antibody, V domains shown)
VH: QVQLVESGGGLVQPGGSLRLSCAASGFTVSSNYMTWVRQAPGKGLEWVSVIYSGGSTYYADSVKGRFTISRDNSKNTLYLQMNSLRADDTAVYYCARDSTADYDFWSGYYVGAFHIWGQGTMVTVSS
VL: B8 VL with A2T, P8A, A10V, V18I, S54T, H98N
Molecule B10 returned a Kd in test [2] of 1.02 nM.

B11: antibody 269 (antibody, V domains shown)
VH: QVQLVESGGGLIQPGGSLRLSCAASGLTVNRNYMSWIRQAPGKGLEWVSVIYSGGSTFYADSVKGRFTISRDNSKNTLSLQMNSLRAEDTAIYYCARDFYEGSFDIWGQGTMVTVSS
VL: AIQLTQSPSFLSASIGDRVTITCRASQGISSYLAWYQQKPGKAPKLLIYAASTLQSGVPSRFSGSGSGTEFTLTISSLQPEDFASYYCQQLNSYPAPVFGPGTKVDIK
B11 yielded a Kd in test [2] of 1.59 nM.

B12: Fab 269 (Fab, V domains shown)
VH: B11 VH
VL: B11 VL
notes: also called 269 Fab; COVOX-269 Fab
In test [1], B12 registered a Kd of 2.2 nM.

B13: antibody 318 (antibody, V domains shown)
VH: QVQLVQSGPEVKKPGTSVKVSCKASGFTLTSSAMQWVRQARGQRLEWIGWIVVGSGNTNYAQKFQERVTITRDMSTSTAYMELSSLRSEDTAVYYCAAGRGYNSDFDYWGQGTLVTVSS
VL: AIRMTQSPGTLSLSPGERATLSCRASQSVSSSYLAWYQQRPGQAPRLLIYGTSSRATGIPDRFSGSGSGTDFTLTISRLEPEDFAVYYCQQYGYSVYTFGQGTKVDIK
In test [2], B13 showed a Kd of 2.23 nM.

B14: Fab 318 (Fab, V domains shown)
VH: B13 VH
VL: B13 VL
The molecule B14 registered a Kd in test [1] of 7.6 nM.

B15: antibody 222 (antibody, V domains shown)
VH: EVQLVESGGGLIQPGGSLRLSCAASGLTVSSNYMSWVRQAPGKGLEWVSVIYSGGSTFYADSVKGRFTISRDNSKNTLYLQMNSLGAEDTAVYYCARGEGSPGNWFDPWGQGTLVTVSS
VL: DVVMTQSPGTLSLSPGERATLSCRASQSVPSSYLAWYQQKPGQAPRLLIYGASTRATGIPDRFSGSGSGTDFTLTISRLEPEDFAVYYCQHYDTSPRFGGGTKVDIK
In test [2], B15 had a Kd of 0.29 nM.

B16: Fab 222 (Fab, V domains shown)
VH: B15 VH
VL: B15 VL
notes: Fab
On to B16, for which the Kd in test [1] amounted to 3 nM.

B17: antibody 281 (antibody, V domains shown)
VH: QVQLVESGGGLVQPGGSLRLSCAASGFPFSIYWMSWVRQAPGKGLEWVANIKQDGSEKYYVDSVKGRFTISRDNAKNSLYLHMNSLRGEDTAVYYCASRYYDFRPEAWFDYWGQGTLVTVSS
VL: not shown
Regarding B17, in test [2], binding was characterised by a dissociation constant (Kd) of 3.2 nM.

B18: Fab 281 (Fab, V domains shown)
VH: B17 VH
VL: not shown
Turning to B18, the Kd in test [1] was 1 nM.

B19: antibody 58 (antibody, V domains shown)
VH: QVQLVESGGGLVQPGRSLRLSCAASGFTFDDYAMHWVRQPPGKGLEWVSGVSWNSGTIGYADSVKGRFIISRDNAKNSLYLQMNSLKAEDTALYYCAREVGGTFGVLISREGGLDYWGQGTLVTVSS
VL: SYELTQPPSVSVAPGQTARITCGGNTIGSKSVHWYQQRPGQAPVLVVYDDSDRPSGIPERFSGSNSGNTATLTISRVEAGDEADYYCQVWDSSSDRVVFGGGTKLTVL
In test [2], B19 registered a Kd of 0.3 nM.

B20: Fab 58 (Fab, V domains shown)
VH: B19 VH
VL: B19 VL
As for B20, the Kd in test [1] stood at 3.4 nM.

B21: Fab 158 (Fab, V domains shown)
VH: EVQLLESGGDLIQPGGSLRLSCAASGVTVSSNYMSWVRQAPGKGLEWVSIIYPGGSTFYADSVKGRFTISRDNSKNTLYLQMHSLRAEDTAVYYCARDLGSGDMDVWGKGTTVTVSS
VL: DIVMTQSPSFLSASVGDRVTITCRASQGISSYLAWYQQKPGKAPKLLIQAASTLQSGVPSRFSGSGSGTEFTLTISSLQPEDFATYYCQQLNSYRYTFGQGTKVEIK
In test [1], B21 gave a dissociation constant (Kd) of 0.7 nM.

B22: antibody 158 (antibody, V domains shown)
VH: B21 VH
VL: B21 VL
Regarding B22, the affinity in test [2], expressed as Kd, was 0.53 nM.

B23: Fab 278 (Fab, V domains shown)
VH: QVQLVQSGAEVKKPGASVKVSCKASGYIFIRYGISWVRQAPGQGLEWMGWISANNGYTNYAQKLQGRVTMTTDTSTSTAYMELRSLRSDDTAVYYCARDGGILTGYLDYFDHWGQGTLVTVSS
VL: DIQMTQSPSSLSASVGDRLTITCRASQSIASYLNWYQQKPGKAPKLLIYAASSLQSGVPSRFSGSGSGTDFTLTISSLQPEDFATYHCQQSYSTLGITFGPGTKVDIK
B23 yielded a Kd in test [1] of 3 nM.

B24: Fab 45 (Fab, V domains shown)
VH: QVQLVESGGGVVQPGRSLRLSCAASGFTFSTYAMHWVRQAPGKGLEWVAVLSYDGSNKYYADSVKGRFTISRDNSKNTLYLQMNSLRAEDTAVYYCAKGGSYAYYYYMDVWGKGTTVTVSS
VL: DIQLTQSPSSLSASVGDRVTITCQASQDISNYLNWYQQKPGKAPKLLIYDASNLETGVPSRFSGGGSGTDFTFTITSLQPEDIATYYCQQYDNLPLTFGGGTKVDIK
In test [1], B24 registered a Kd of 5.9 nM, a koff of 0.00046 s⁻¹ and a kon of 78000 M⁻¹ s⁻¹.
